Laboratory results taken from patent publication US20070237775A1 (Eli Lilly, published 2007).
Substitutions are numbered along the chain they refer to. Blank lines part the entries; values can stand above or below the binder they belong to.

What was measured:
[1] = biological target: T1, human ghrelin peptide spanning amino acids 20-28 (human); assay: peptide competition with full-length hGhrelin for the Fab
T1 construct: also called hGhrelin 20-28
T1 peptide: KPPAKLQPR

[2] = biological target: T2, human ghrelin peptide spanning amino acids 4-20 (human); assay: FLIPR calcium assay, peptide competing with hGhrelin for the Fab
T2 peptide: FLSPEHQRVQQRKESKK
Experimental: (§1) The wells are then washed twice with HBSS and 50 μL FLIPR buffer is then added per well.
(§2) Samples are prepared by combining 7.2 μl calcium concentrate (CaCl₂-2H₂O in water at 3.7 mg/ml mixed 1:1 with HBSS and filter sterilized) with 30 μl peptide, 30 μl Fab (of varying concentration), and 16.8 μl hGhrelin (2.5 μM stock) in 3.75% BSA/50% HBSS. The final concentration of the sample solution is 0.75% BSA, and calcium at approximately the same concentration as in the FLIPR buffer. Fifty microliters of the sample solution is added to the 50 μl FLIPR buffer in the well with the AV12 cells. The final concentration of the peptide is 100 nM and the final concentration of the hGhrelin is 0.83 nM. The cell plate is shaken for about 15 seconds prior to loading it into the FLIPR instrument. Test samples or control samples are added to each well, and read by a Fluorometric Imaging Plate Reader (Molecular Devices).
(§3) If there is no Fab or an irrelevant antibody present in the solution, the full-length hGhrelin will be free to bind the GHS-R1a receptor on the AV12 cells and signal transduction will occur resulting in comparatively high values in the assay. If a Fab is present that binds to the full-length hGhrelin in the solution, then the full-length hGhrelin binding to the GHS-R1a receptor is inhibited and signal transduction is thereby inhibited resulting in comparatively lower values in the assay. However, if a peptide (i.e., a fragment of human ghrelin) is also added to the solution and the Fab binds the peptide, then the full-length hGhrelin is not prevented from binding the GHS-R1a receptor, signal transduction is not inhibited, and the values in the assay are comparatively high. […] The peptides competing with hGhrelin for Fab binding were used in the assay at a concentration over 50 times that of hGhrelin.

[3] = biological target: T3, human ghrelin peptide spanning amino acids 18-28 (human); assay: as above
T3 construct: also called hGhrelin 18-28; ghrelin peptide 18-28
T3 peptide: SKKPPAKLQPR
Experimental: as §1, §2, §3

binding result [1]: no binding
binding result [2]: no binding (tested: peptide 100 nM)
binding result [3]: no binding (tested: peptide 100 nM)
B1: Fab 3281 (Fab, V domains shown)
VH: QVQLQQSRAELAKPGASVKMSCKASGYTFTSYWMHWVKQGPGQGLEWIGYINPSTGYTEYTQKFKDKATLTADKSSSTAYMQLSSLTSEDSAVYYCATDGYDEDYWGQGTTLTVSS
VL: DAVMTQIPLTLSVTIGQPASISCRSSQSLGHSNGNTYLHWYLQKPGQSPKLLIYKVSNRFSGVPDRFSGSGSGTDFTLKISRVEAEDLGTYFCSQSTLVPWTFGGGTKLEIKR
notes: Murine Fab from an Omniclonal antibody library (immunized C57/Bl6 mice); kappa light chain (captured and detected with goat anti-mouse kappa)

binding result [2]: no binding (tested: peptide 100 nM)
B2: Fab 4281 (Fab, V domains shown)
VH: QVQLQQSRAELAKPGASVKMSCKASGYTFTSYWIHWIKQRPGQGLEWIGYIDPGIGNIEYNQKFQDKATLTADKSSSIVYMQLNRLTSEDSAVYYCATDGYDEDYWGQGTTLTVSS
VL: B1 VL with A2V, I7T, T10S, S12P, T14S, I15L, Q17D, P18Q, G30V
notes: Murine Fab, kappa light chain

binding result [2]: no binding (tested: peptide 100 nM)
B3: Fab 4731 (Fab, V domains shown)
VH: B1 VH
VL: B1 VL with A2V, I7T, T10S, S12P, T14S, I15L, Q17D, P18Q, G30V
notes: Murine Fab, kappa light chain
